# Measured values from the supplement of paper PMC12042874.
# ± gives the uncertainty stated by the source.
# Assay: amyloid nucleation score (Sup35N fusion, yeast selection) (log enrichment); library NNK3; higher = more nucleation; inactive = no reads after selection
# In short: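 Three technical output replicates were used for random libraries. Psi-negative yeast expressing peptides of 20 random codons fused to Sup35N were induced with 100 μM copper sulfate for 24 hours and grown 7 days at 30°C on medium lacking adenine and uracil, and input and output plasmid inserts were Illumina-sequenced, excluding sequences with under 100 input reads. The nucleation score is the DiMSum log enrichment of output over input reads, centred on the mode score of non-aggregating sequences.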
row,Substance,amyloid nucleation score
1,AHRLHSLINSLTLSNRSMM,inactive
2,VMAYRHAGRRFSDPKSIKIS,inactive
3,PGRLSYLPHMFKYLLLITYT,inactive
4,WNMSVRRISYEDL,inactive
5,VRCSR,inactive
6,MCKGR,inactive
7,FYFNRHRHHNVCRYLIGHPC,inactive
8,TQRICRWLMVVWCDGRETHE,0.403 ± 0.35
9,FVHKNPHHRFAQMCTKANCR,inactive
10,TLALSKSMMYQMVINPAIY,inactive
11,GVLQLNVIVTYFVMDMCSWL,1.78 ± 0.095
12,TLLLMSWHFGYMRAQF,3.14 ± 0.05
13,KYQLHYLDVFFYDVV,inactive
14,FASSDC,inactive
15,HDLAETCGSSPI,inactive
16,EFVFECLYGTLLGRALMLRP,inactive
17,LGAKILCNWRVVHDSSCQHL,inactive
18,WDWWN,inactive
19,SMADPRFQESYEDRETYSIS,inactive
20,VMNLEPRSHVWYVTVFSHAS,1.68 ± 0.096
21,GRWGGDYFCVGNFMG,inactive
22,RNLRYICRFALGGVARLWCG,0.197 ± 0.55
23,RGAIIFGKTMIYDSC,inactive

row,Substance,amyloid nucleation score
1,LHGNYVGQLLDLEIPVRGWI,inactive
2,CSGYVNGLVIQGKCAKDVVW,inactive
3,QMSGMFTLVDWT,inactive
4,KGLCL,inactive
5,GVKCPKKTNRQWGIVALMRP,inactive
6,NSGLSIVWDWLDCFSGMKYS,inactive
7,SACVGFMGPRNIRL,inactive
8,CAVYFLR,inactive
9,ALGTSEGRLQLSYDNHGVVL,inactive
10,KLPVKGRMPVVF,inactive
11,KWNHYWDIVFCTSYFNSTFM,2.29 ± 0.066
12,HKTLFIFS,inactive
13,MRNTFRTHSKQYHHG,inactive
14,TSDIFTSRYILAIDPRMNWV,inactive
15,SGFVSWN,inactive
16,VDSLFSGKNYELECKFDSWI,inactive
17,TSLLILRCSGE,inactive
18,IIQDYGTVVD,inactive
19,HNQTDSASVIWFSYVWAFVG,inactive
20,YSNNILFAQEISQPYGHMFP,inactive
21,CSEGLYGVSTVICCIISSVN,2.2 ± 0.077
22,CCNFWRMPMTLCRNSCSSST,0.718 ± 0.17
23,WHWCCDSNMMRVIFTWFFSL,inactive

row,Substance,amyloid nucleation score
1,GYILVLYADRAKICDKFYVG,2.27 ± 0.05
2,ELIDKLVT,inactive
3,IDVKSLSWKMYRRLGTIPYT,-0.317 ± 0.93
4,VLTRTTRLTHSTTSICLLVL,inactive
5,LGLISIAESRRLSRSDSMWW,inactive
6,IKMSLAELTIFRCLWDCPNS,2.42 ± 0.077
7,FAMETLNSSTFRCYHQFYGF,inactive
8,NMCDNMQQIMVSGYVVVWVY,1.19 ± 0.15
9,GDLGDVPGRWDWNKSWFVNY,inactive
10,LFEYGYCMIGIQLLKRY,inactive
11,SAYVYTD,-0.156 ± 0.66
12,QRSEV,inactive
13,DSNVRSFVSMLSVN,inactive
14,CPGDPVESRCFPVLVNLRRG,inactive
15,YKGDKFVRCSVW,inactive
16,TDFTYSLTFVYKLGEKTVDI,inactive
17,FYVASFWYYPKSEHNGA,inactive
18,AMSIVERQGDVWLSYRKWNG,inactive
19,YSVLLCVALRLVNNVA,inactive
20,GRVFRCTPEVFIK,inactive
21,RSWQEMFCEWSSALDWDWSV,inactive
22,VYVRG,inactive
23,ILIRHDAMNRYPQC,inactive

row,Substance,amyloid nucleation score
1,NQNIMWIAKYIF,0.845 ± 0.14
2,MLMVLRGRSRDNNVQSLLFA,-0.292 ± 1.2
3,EDFPRALVVRSYQWIYIQNV,1.24 ± 0.12
4,PRYFSRASSKNSRF,inactive
5,NIAIGLYRFKMLDGKRSCML,inactive
6,VLGYDGAGKVVIFDVNLAGL,1.87 ± 0.083
7,HSSMIIRLWLDVVVQIRGQ,0.575 ± 0.28
8,LAMAPITKSSKLMLAFMR,inactive
9,ASDRMKGVLNLLQYVGYSSM,inactive
10,THTSAKDHRVDWLSQL,inactive
11,RCDCLRRNGSLHSQFNVSGG,1.02 ± 0.2
12,SPFLKTTVAGLGSPRELSIR,inactive
13,KMHWNAGDQLYVRSPTHSLR,inactive
14,LPNRYVMINGCIRQFAKCDI,1.58 ± 0.08
15,RSYLSEHSNYGAKSSYYGIF,inactive
16,CRKLYNISFLVLLTFFSHLF,inactive
17,LCSDLVFHNR,inactive
18,SKSITEADNPRNILNASGVE,inactive
19,NVLFRMTRHAYSKLTWLFKR,inactive
20,MPFIPHLDGS,inactive
21,MPSRCMLDSTIILYYWRFEH,0.781 ± 0.28
22,YMYFKVDVDWRSPGMTARLL,inactive
23,PSSFASP,inactive

row,Substance,amyloid nucleation score
1,VYKIMVTFPSISMPSRSSGL,inactive
2,KCTFFDTCVTQTCLFNMFGC,2.34 ± 0.063
3,SRQKINHQCCYKFCVVDYY,1.56 ± 0.091
4,FFKICFRAKYIGNLSPLLK,inactive
5,KRECYMIIHI,inactive
6,NGHKEESILCGNGYWKHASE,inactive
7,CLKSA,-0.912 ± 0.93
8,EVSSTDL,inactive
9,NWWFPTFVRVFIYEVGLVLK,inactive
10,TFSDVGLFYLTQYDKVPFDL,inactive
11,KYLWDLATHNIFAGSKMMDN,inactive
12,FYLGRLSVNGRVVQRHNESM,inactive
13,SNPVFFVMLAPLWVAQLSNP,inactive
14,RGKLFLSLLIVYFTLFLSVM,inactive
15,DCESQQLSSSMWDTPQRWLT,inactive
16,IGWYYSYITRKSENWVLVAL,inactive
17,FFSAPMNEVKTGTILKGFVC,inactive
18,LGGLCPCF,inactive
19,WIPAMVYFEHNTS,inactive
20,FQVYFLSVYACRCLMARLGS,inactive
21,THLCIEMLRM,-0.297 ± 0.88
22,SRMDNSDTIYNILLWTSSYS,inactive
23,SYGQSCCQDTGLSRNALMQ,inactive

row,Substance,amyloid nucleation score
1,KSGICGCVGHLVHKPMQLRV,inactive
2,LQRTWLKVFGASCFICDDFL,1.99 ± 0.097
3,RVKYL,inactive
4,IVSKMAVYMAGTSALVLPLL,-0.086 ± 0.88
5,CFGHYSMN,inactive
6,VSVYKNVAFFISWI,1.58 ± 0.09
7,FADYLMKPCRMCLLRDPVYS,inactive
8,CRMAKRLAVRTSLRRMFSES,inactive
9,GLRNYRDGVKIASAVSVGAS,inactive
10,SIGCSSGFGRCLDLG,inactive
11,PGIQYPSCRKLVIIYMSCL,inactive
12,YSGGKGSGRELRYTLLVRGT,inactive
13,KVCFCSLL,2.94 ± 0.075
14,GFETLYIYAVRGN,inactive
15,SFFTKADAGMPDLRSFMESC,inactive
16,TAIYIDRNECSLKVYRIKDK,0.612 ± 0.44
17,FNVFLSLATGISDGYYMLTA,inactive
18,SDFFTLSS,inactive
19,MTSSVP,inactive
20,DADYLT,inactive
21,ISSLGKKTW,inactive
22,GFSCVNFFAWIL,1.81 ± 0.082
23,YCWYRQMDNSRGGYYMWVS,inactive

row,Substance,amyloid nucleation score
1,SSKYISFSTTSYCTGLYRTP,0.896 ± 0.16
2,RKKLEGVFVRLFQFANPIVG,inactive
3,GTEVILSLVSESTGKRAARL,inactive
4,DSPMKLSALSHM,-0.261 ± 0.96
5,LKWNTTSVNVVYLSFIIGRQ,2.15 ± 0.086
6,VCYPHLYWMDPGWVS,inactive
7,KSGIV,0.633 ± 0.19
8,KFCGEH,inactive
9,EIVRRSSVISCHRT,inactive
10,LEYAVVKSHQREESSSTCLG,inactive
11,HLCAVHKQFFYGSTGGVYTR,inactive
12,VYRDFSGYFRLGWFDMSSVR,inactive
13,YKRGFMKRYANAEASFMSYW,inactive
14,ESMSHRGAPGRERVLRSNM,inactive
15,KIVFPLNLG,inactive
16,KAVGRSIVYDFGSALCEMIN,1.4 ± 0.12
17,NSYMHGQDF,inactive
18,SNPLYGSDMQVHYF,1.16 ± 0.14
19,SHSMM,-0.218 ± 0.66
20,AGFSVVSRPLFVRQLPV,inactive
21,SMSSELCLGNRHYG,inactive
22,CLYPGRSWVTGAGITVWSLV,inactive
23,TRHIGVGRY,inactive
